# Measured values reported in patent US20020102606A1 (published 2002).
# T1: Profilin II amino acids 4-91 (prey) (human, UniProt P35080 4-91)
# T1 construct: range 4-91
# T1 sequence (looked up): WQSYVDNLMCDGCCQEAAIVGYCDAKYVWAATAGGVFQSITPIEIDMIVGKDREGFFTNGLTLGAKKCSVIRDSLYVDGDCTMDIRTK
# T2: p38 gamma amino acids 29-368 (bait) (UniProt P53778 29-367)
# T2 construct: range 29-368; also called Protein Kinase p38 gamma; p38 gamma kinase
# T2 sequence (looked up): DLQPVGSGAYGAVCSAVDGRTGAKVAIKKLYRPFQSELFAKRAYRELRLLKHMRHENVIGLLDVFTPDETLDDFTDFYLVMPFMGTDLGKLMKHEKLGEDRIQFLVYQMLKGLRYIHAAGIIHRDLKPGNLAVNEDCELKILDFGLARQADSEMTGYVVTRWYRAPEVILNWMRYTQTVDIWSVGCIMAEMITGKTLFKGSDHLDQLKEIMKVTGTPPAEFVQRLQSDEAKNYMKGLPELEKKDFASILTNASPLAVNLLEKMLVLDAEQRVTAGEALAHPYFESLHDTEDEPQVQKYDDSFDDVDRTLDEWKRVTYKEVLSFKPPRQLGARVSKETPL
# T3: PRAK NUC 201-1104 (bait, no mutation) (UniProt Q8IW41 1-301)
# T3 construct: Limits printed as nucleotides only; also called Protein Kinase PRAK
# T3 sequence (looked up): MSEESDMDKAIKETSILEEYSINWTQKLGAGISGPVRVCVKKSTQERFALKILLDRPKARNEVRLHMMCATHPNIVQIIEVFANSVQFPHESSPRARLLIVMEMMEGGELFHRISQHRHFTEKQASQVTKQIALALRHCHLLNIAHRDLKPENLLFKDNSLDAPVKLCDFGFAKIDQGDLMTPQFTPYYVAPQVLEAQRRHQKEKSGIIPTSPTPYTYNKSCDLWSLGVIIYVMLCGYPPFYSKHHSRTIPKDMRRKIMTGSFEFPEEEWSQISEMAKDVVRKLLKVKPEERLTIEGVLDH
# T4: PRAK NUC 201-1104 K51M (bait) (UniProt Q8IW41 1-301)
# T4 construct: Limits printed as nucleotides only; also called Protein Kinase PRAK
# T4 sequence (looked up): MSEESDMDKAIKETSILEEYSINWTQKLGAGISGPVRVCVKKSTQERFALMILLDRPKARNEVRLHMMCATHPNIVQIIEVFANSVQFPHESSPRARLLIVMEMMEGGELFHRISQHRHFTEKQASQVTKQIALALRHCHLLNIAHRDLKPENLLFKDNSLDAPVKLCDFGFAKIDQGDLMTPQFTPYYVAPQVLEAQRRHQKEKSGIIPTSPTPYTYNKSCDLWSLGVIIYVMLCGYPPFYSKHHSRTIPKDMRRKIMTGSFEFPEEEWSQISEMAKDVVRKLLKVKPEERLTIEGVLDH
# T5: PRAK NUC 201-1104 K51M, T182D (bait) (UniProt Q8IW41 1-301)
# T5 construct: Limits printed as nucleotides only; also called Protein Kinase PRAK
# T5 sequence (looked up): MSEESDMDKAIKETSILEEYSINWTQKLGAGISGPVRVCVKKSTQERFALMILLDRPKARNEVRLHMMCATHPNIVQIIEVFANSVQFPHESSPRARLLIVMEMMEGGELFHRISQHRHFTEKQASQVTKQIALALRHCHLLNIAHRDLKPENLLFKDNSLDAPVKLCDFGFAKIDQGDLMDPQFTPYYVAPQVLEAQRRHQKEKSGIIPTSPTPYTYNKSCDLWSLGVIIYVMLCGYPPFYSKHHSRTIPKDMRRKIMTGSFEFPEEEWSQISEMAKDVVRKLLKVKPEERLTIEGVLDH
# Tests used:
# Experiment in all cases: yeast two-hybrid; prey clone found with the bait of the row
# [1] = target: T6, MAPKAP-K3 NUC 433-1003 (bait) (UniProt Q16644 114-304)
# T6 construct: range 114-304; also called MAP Kinase MAPKAP-K3
# Text: (§1) A total human brain (person) cDNA library cloned into the yeast expression vector pACT2 was purchased from Clontech (human brain […] cDNA, cat. # HL4004AH), transformed into the yeast strain J692 (genotype of this strain: Mat a, ade2, his3, leu2, trp1, URA3::GAL1-lacZ LYS2::GAL1-HIS3 ga14del ga180del cyhR2), and selected for the ability to drive leucine synthesis. In these yeast cells, each cDNA is expressed as a fusion protein with the transcription activation domain of the transcription factor Ga14 (amino acids 768 to 881) and a 9 amino acid hemagglutinin epitope tag. J693 cells (Mat α type) expressing the bait were then mated with J692 cells (Mat a type) expressing proteins from the brain library. The resulting diploid yeast cells expressing proteins interacting with the bait protein were selected for the ability to synthesize tryptophan, leucine, histidine, and β-galactosidase. DNA was prepared from each clone, transformed by electroporation into E. coli strain KC8 (Clontech KC8 electrocompetent cells, cat. # C2023-1), and the cells were selected on ampicillin-containing plates in the absence of either tryptophane (selection for the bait plasmid) or leucine (selection for the brain library plasmid). DNA for both plasmids was prepared and sequenced by di-deoxynucleotide chain termination method. The identity of the bait cDNA insert was confirmed and the cDNA insert from the brain library plasmid was identified using BLAST program against public nucleotides and protein databases. Plasmids from the brain library (preys) were then individually transformed into yeast cells together with a plasmid driving the synthesis of lamin fused to the Ga14 DNA binding domain. Clones that gave a positive signal after β-galactosidase assay were considered false-positives and discarded. Plasmids for the remaining clones were transformed into yeast cells together with plasmid for the original bait. Clones that gave a positive signal after β-galactosidase assay were considered true positives.
# (§2) The “AA” refers to the amino acids of the bait or prey. The “NUC” refers to the nucleotides of the bait or prey.
# [2] = target: T1, Profilin II amino acids 4-91 (prey)
# Text: as §1, §2
# [3] = target: T2, p38 gamma amino acids 29-368 (bait)
# Text: as §1, §2
# [4] = target: T3, PRAK NUC 201-1104 (bait, no mutation)
# Text: as §1, §2
# [5] = target: T4, PRAK NUC 201-1104 K51M (bait)
# Text: as §1, §2
# [6] = target: T5, PRAK NUC 201-1104 K51M, T182D (bait)
# Text: as §1, §2
# T6 sequence (Q16644 114-304 limits assumed): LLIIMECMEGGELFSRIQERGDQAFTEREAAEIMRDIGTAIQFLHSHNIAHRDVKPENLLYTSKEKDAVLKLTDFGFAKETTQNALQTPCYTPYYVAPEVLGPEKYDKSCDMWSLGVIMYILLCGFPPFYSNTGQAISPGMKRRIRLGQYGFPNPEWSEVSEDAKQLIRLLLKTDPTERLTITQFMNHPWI
binder,measurement,setting,value
"Vimentin amino acids 309-463 (prey) (other, human, UniProt P08670 309-463, looked up, range 309-463) LRQAKQESTEYRRQVQSLTCEVDALKGTNESLERQMREMEENFAVEAANYQDTIGRLQDEIQNMKEEMARHLREYQDLLNVKMALDIEIATYRKLLEGEESRISLPLPNFSSLNLRETNLDSLPLVDTHSKRTLLIKTVETRDGQVINETSQHHD",binding result,[1],binds
MMEDDGQPRTLYVGNLSRDVTEVLILQLFSQIGPCKSCKMITEHTSND (other) [TIAR amino acids 1-48 (bait)],binding result,[2],binds
"ERF-2 amino acids 7-192 (prey) (other, human, UniProt P47974 7-192, looked up, range 7-192; also called TIS11D) SAFYDVDFLCKTEKSLANLNLNNMLDKKAVGTPVAAAPSSGFAPGFLRRHSASNLHALAHPAPSPGSCSPKFPGAANGSSCGSAAAGGPTSYGTLKEPSGGGGTALLNKENKFRDRSFSENGDRSQHLLHLQQQQKGGGGSQINSTRYKTELCRPFEESGTCKYGEKCQFAHGFHELRSLTRHPKY",binding result,[1],binds
"DLG2 amino acids 294-594 (prey) (other, human, UniProt Q15700 294-594, looked up, range 294-594; also called chapsyn-110) THSYSPPMENHLLSGNNGTLEYKTSLPPISPGRYSPIPKHMLVDDDYTRPPEPVYSTVNKLCDKPASPRHYSPVECDKSFLLSAPYSHYHLGLLPDSEMTSHSQHSTATRQPSMTLQRAVSLEGEPRKVVLHKGSTGLGFNIVGGEDGEGIFVSFILAGGPADLSGELQRGDQILSVNGIDLRGASHEQAAAALKGAGQTVTIIAQYQPEDYARFEAKIHDLREQMMNHSMSSGSGSLRTNQKRSLYVRAMFDYDKSKDSGLPSQGLSFKYGDILHVINASDDEWWQARRVMLEGDSEEMG",binding result,[3],binds
"MLK2 amino acids 398-556 (prey) (enzyme, human, UniProt Q02779 398-556, looked up, range 398-556; also called mixed lineage kinase) LRSREEELLRAAQEQRFQEEQLRRREQELAEREMDIVERELHLLMCQLSQEKPRVRKRKGNFKRSRLLKLREGGSHISLPSGFEHKITVQASPTLDKRKGSDGASPPASPSIIPRLRAIRLTPVDCGGSSSGSSSGGSGTWSRGGPPKKEELVGGKKKG",binding result,[4],binds
same,binding result,[5],binds
"Homer-3 NUC 774-1152 (prey) (other, human, UniProt Q9NSC5 228-354, looked up, Limits printed as nucleotides only) RQRVAELEAQAASEVTPTGEKEGLGQGQSLEQLEALVQTKDQEIQTLKSQTGGPREALEAAEREETQQKVQDLETRNAELEHQLRAMERSLEEARAERERARAEVGRAAQLLDVSLFELSELREGLA",binding result,[6],binds
"Histone Acetyl Transferase 1 (HAT1) amino acids 334-420 (prey) (enzyme, human, UniProt O14929 334-419, looked up, range 334-420) ILRLLVTDMSDAEQYRSYRLDIKRRLISPYKKKQRDLAKMRKCLRPEELTNQMNQIEISMQHEQLEESFQELVEDYRRVIERLAQE",binding result,[6],binds
"Nuclear Mitotic Apparatus Protein 1 (NuMA1) NUC 1395-1713 (prey) (other, human, UniProt Q14980 413-519, looked up, range 413-519) LQLETLKQEAATLAANNTQLQARVEMLETERGQQEAKLLAERGHFEEEKQQLSSLITDLQSSISNLSQAKEELEQASQAHGARLTAQVASLTSELTTLNATIQQQDQ",binding result,[1],binds
"Nuclear Mitotic Apparatus Protein 1 (NuMA1) NUC 1394-1711 (prey) (other, human, UniProt Q14980 413-519, looked up, Limits printed as nucleotides only) LQLETLKQEAATLAANNTQLQARVEMLETERGQQEAKLLAERGHFEEEKQQLSSLITDLQSSISNLSQAKEELEQASQAHGARLTAQVASLTSELTTLNATIQQQDQ",binding result,[6],binds
"Homer-3 NUC 720-1152 (prey) (other, human, UniProt Q9NSC5 210-354, looked up) AAQWRQQLEAQRAEAERLRQRVAELEAQAASEVTPTGEKEGLGQGQSLEQLEALVQTKDQEIQTLKSQTGGPREALEAAEREETQQKVQDLETRNAELEHQLRAMERSLEEARAERERARAEVGRAAQLLDVSLFELSELREGLA",binding result,[1],binds
